{
  "source": "patent US20150079112A1",
  "about": "(SAMSUNG ELECTRONICS, published 2015)",
  "experiment_in_all_cases": "ELISA, coated antibody 1000 nM, 250 ng FLAG-tagged mutant Ang2, anti-FLAG-HRP, OD450",
  "key": {"[1]": {"target": "T1, mutant Ang2 protein, N421 substituted with alanine, FLAG-tagged at its N-terminal (human, UniProt O15123 19-496, limits assumed)", "T1 sequence": "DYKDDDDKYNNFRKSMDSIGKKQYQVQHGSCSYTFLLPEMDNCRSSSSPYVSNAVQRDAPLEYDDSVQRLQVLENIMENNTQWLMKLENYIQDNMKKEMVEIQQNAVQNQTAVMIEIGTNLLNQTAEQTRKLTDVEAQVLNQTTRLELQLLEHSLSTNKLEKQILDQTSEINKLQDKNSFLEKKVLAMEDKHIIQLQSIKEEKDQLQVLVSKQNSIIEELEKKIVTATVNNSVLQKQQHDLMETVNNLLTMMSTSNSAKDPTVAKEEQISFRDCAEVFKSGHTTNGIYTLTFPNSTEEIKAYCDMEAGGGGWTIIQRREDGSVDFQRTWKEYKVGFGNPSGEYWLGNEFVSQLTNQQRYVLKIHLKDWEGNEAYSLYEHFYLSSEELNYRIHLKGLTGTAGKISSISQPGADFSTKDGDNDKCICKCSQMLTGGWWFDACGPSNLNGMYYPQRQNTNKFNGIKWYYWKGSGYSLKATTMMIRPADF", "method": "(§1) Each well of a 96-well MaxiSorp™ flat-bottom plate (Nunc) was coated with 50 ul (microliter) of 1000 nM antibody. Then, the plate was washed five times with 0.05% (v/v) Tween-20-containing PBS (PBST) and blocked with 1% (v/v) BSA-containing PBS at a room temperature for 2 hours. 250 ng of each mutant Ang2 protein obtained by substituting S417, Q418, P419, N421, I434, D448, A449, P452, Y460, N467, K468, or F469 residue of Ang2 protein tagged with a FLAG sequence ([…], Sigma) at its N-terminal with alanine was added to each well of the plate, which was then allowed to react at a room temperature for 2 hours.\n(§2) The plate was washed five times with 0.05% (v/v) Tween-20 containing PBS, reacted with an anti-FLAG antibody (SIGMA) conjugated with HRP which was diluted in 1% (v/v) BSA-containing PBS at a ratio of 1:5,000 (v/v) at a room temperature for 1 hour, and washed five times with 0.1% (v/v) Tween-20-containing PBS.\n(§3) Finally, 50 ul of TMB substrates (Cell signaling) was added to each well of the plate to induce color development at a room temperature for 3 min. and the reaction was ceased by the addition of 50 ul of Stop solution (Cell signaling) and then, OD450 values were measured on a plate reader (Molecular Devices). By comparing binding affinities with mutated Ang2 to those of unmutated Ang2, each epitope of Ang2 antibodies was identified. The thus obtained measurement results of the binding affinities (%) with mutant Ang2 against the binding affinity with the native Ang2 are shown in the following Table 8."}, "[2]": {"target": "T2, mutant Ang2 protein, F469 substituted with alanine, FLAG-tagged at its N-terminal (human, UniProt O15123 19-496, limits assumed)", "T2 sequence": "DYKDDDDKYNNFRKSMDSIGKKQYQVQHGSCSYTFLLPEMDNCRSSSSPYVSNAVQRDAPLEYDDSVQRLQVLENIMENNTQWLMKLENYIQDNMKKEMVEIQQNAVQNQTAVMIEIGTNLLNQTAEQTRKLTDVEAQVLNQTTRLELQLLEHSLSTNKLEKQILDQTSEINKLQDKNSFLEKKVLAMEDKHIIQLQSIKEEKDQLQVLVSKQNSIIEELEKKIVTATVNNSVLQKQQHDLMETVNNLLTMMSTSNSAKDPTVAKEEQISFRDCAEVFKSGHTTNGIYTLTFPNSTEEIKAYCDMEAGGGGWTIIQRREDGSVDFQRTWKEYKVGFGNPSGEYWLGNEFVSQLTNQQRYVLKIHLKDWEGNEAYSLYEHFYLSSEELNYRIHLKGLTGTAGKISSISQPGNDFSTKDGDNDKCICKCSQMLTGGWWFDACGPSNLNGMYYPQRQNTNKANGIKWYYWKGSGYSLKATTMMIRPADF", "method": "as §1, §2, §3"}, "[3]": {"target": "T3, mutant Ang2 protein, N467 substituted with alanine, FLAG-tagged at its N-terminal (human, UniProt O15123 19-496, limits assumed)", "T3 sequence": "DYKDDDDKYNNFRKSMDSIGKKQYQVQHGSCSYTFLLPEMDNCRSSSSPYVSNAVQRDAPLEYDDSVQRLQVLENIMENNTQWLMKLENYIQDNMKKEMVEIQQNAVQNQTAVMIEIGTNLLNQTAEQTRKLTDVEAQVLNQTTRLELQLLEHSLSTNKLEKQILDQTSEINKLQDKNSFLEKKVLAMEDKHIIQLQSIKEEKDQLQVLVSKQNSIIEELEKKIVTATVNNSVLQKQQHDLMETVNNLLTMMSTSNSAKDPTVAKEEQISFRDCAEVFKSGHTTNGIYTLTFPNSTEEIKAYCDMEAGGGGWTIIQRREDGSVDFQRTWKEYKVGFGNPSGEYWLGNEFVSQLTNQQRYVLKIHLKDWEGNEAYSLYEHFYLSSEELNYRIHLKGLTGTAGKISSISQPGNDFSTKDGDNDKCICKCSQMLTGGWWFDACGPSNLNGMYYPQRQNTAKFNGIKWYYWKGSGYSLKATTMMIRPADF", "method": "as §1, §2, §3"}, "[4]": {"target": "T4, mutant Ang2 protein, P452 substituted with alanine, FLAG-tagged at its N-terminal (human, UniProt O15123 19-496, limits assumed)", "T4 sequence": "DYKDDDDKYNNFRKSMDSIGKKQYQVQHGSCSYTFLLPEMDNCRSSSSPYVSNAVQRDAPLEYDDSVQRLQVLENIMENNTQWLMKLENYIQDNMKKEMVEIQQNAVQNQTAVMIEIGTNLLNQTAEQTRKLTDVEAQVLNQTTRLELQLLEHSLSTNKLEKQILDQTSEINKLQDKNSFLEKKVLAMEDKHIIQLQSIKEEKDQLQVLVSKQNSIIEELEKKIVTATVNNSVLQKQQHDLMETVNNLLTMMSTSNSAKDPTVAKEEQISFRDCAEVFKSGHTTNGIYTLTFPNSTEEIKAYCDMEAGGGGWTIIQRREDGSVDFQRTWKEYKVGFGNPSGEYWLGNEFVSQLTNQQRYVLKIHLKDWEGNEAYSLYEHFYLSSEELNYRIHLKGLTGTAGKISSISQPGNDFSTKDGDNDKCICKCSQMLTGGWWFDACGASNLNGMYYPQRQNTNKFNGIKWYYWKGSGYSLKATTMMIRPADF", "method": "as §1, §2, §3"}},
  "data": [
    {"binder": "SAIT-ANG2-AB-m10D6 (antibody, V domains shown, also called antibody 10D6; anti-Ang2 antibody (10D6)) VH: DVQLQESGPGLVKPSQSLSLTCTVTGYSITSDYAWNWIRQFPGNKLEWMGYINYSGNTDYNPSLKSRSSITRDTSKNQFFLQLNSVTTGDTATYYCARGNFEGAMDYWGQGTSVTVSS VL: SIVMTQTPKFLLVSAGDRVTITCKASQSVSNDVAWYQQKPGQSPKLLIYYASNRYPGVPDRFTGSGYGTDFTFTISTVQAEDLAVYFCQQDYSSPWTFGGGTKLEIK", "values": [
      {"measurement": "binding affinity (%) with mutant Ang2 against the binding affinity with the native Ang2", "setting": "[1]", "result": 109, "unit": "%"},
      {"measurement": "binding affinity (%) with mutant Ang2 against the binding affinity with the native Ang2", "setting": "[2]", "result": 109, "unit": "%"},
      {"measurement": "binding affinity (%) with mutant Ang2 against the binding affinity with the native Ang2", "setting": "[3]", "result": 107, "unit": "%"},
      {"measurement": "binding affinity (%) with mutant Ang2 against the binding affinity with the native Ang2", "setting": "[4]", "result": 102, "unit": "%"}
    ]}
  ]
}
